# Test results reported in patent US20160272683A1 (Novo Nordisk, published 2016).
# Numbered stars: 1 amine (or outer) side, 2 acyl side, 3 side chain; on linkers, the order of the positions; unused ones are H or OH. Square brackets hold non-standard residues; d marks the D form. Side chains are listed from the residue outwards. * marks the point of attachment. C20 diacid = O=C(O)CCCCCCCCCCCCCCCCCCC(=O)*; C18 diacid = O=C(O)CCCCCCCCCCCCCCCCC(=O)*; γGlu = O=C(O)[C@H](CCC(=O)[*:2])N[*:1]
# T1: human amylin receptor (human calcitonin receptor + human RAMP3) (human) (UniProt P30988)
# T1 sequence (looked up) 1: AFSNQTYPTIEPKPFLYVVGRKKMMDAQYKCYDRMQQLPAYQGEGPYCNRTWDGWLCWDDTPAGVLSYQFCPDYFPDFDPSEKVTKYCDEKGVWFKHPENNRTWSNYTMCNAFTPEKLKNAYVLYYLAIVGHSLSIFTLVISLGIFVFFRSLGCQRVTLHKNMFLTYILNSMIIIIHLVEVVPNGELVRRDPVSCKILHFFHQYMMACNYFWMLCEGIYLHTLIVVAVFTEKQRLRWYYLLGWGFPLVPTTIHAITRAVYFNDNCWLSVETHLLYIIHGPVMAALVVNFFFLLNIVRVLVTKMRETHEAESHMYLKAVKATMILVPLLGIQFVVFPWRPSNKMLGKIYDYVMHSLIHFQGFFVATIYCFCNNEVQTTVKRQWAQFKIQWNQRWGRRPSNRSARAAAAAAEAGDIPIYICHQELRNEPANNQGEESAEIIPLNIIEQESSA
# T1 sequence (looked up) 2: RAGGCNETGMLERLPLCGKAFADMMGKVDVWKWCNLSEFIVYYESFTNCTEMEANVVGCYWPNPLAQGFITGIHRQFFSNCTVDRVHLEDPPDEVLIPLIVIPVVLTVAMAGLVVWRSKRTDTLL
# Tests used:
# [1] = target: T1, human amylin receptor (human calcitonin receptor + human RAMP3) (human); experiment: whole-cell competition vs 125I-rat amylin (Assay Va)
# [2] = target: rat calcitonin receptor (rat) (UniProt P32214); experiment: SPA competition vs 125I-calcitonin, membranes with rat CTR (Assay VIII)
# [3] = target: rat amylin receptor (rat calcitonin receptor with rat RAMP 3) (rat) (UniProt P32214); experiment: SPA competition vs 125I-rat amylin, membranes with rat CTR + rat RAMP3 (Assay VI)
# Sequence of [N-terminal(C18 diacid-gGlu-2xOEG), des1, 4G, 9V, 15Q, 21Q, 23Y, 30S, 31G, 32T, 33Y]mimylin (peptide) (peptide): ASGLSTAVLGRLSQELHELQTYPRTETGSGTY
IC50 [1] [nM],IC50 [2] [nM],IC50 [3] [nM],Molecule
0.801,0.032,0.357,"[N-terminal(C18 diacid-gGlu-2xOEG), des1, 4G, 9V, 15Q, 21Q, 23Y, 30S, 31G, 32T, 33Y]mimylin (peptide)"
–,0.042,0.115,"Ac-ASELSTAALGRLSAK([γGlu-C20 diacid])LHELATLPRTETGSGSP-NH2 [[N-terminal(acetyl), des1, 16K(C20 diacid-gGlu), 30S, 31G]mimylin]"
3.17,0.062,0.046,"{C20 diacid-γGlu}-ASELSTASLGRLSAELHELSTYPRTETGSGSY-NH2 (SMILES CC(C)C[C@H](NC(=O)[C@H](CO)NC(=O)[C@H](C)NC(=O)[C@@H](NC(=O)[C@H](CO)NC(=O)[C@H](CC(C)C)NC(=O)[C@H](CCC(=O)O)NC(=O)[C@H](CO)NC(=O)[C@H](C)NC(=O)CC[C@H](NC(=O)CCCCCCCCCCCCCCCCCCC(=O)O)C(=O)O)[C@@H](C)O)C(=O)NCC(=O)N[C@@H](CCCNC(=N)N)C(=O)N[C@@H](CC(C)C)C(=O)N[C@@H](CO)C(=O)N[C@@H](C)C(=O)N[C@@H](CCC(=O)O)C(=O)N[C@@H](CC(C)C)C(=O)N[C@@H](Cc1c[nH]cn1)C(=O)N[C@@H](CCC(=O)O)C(=O)N[C@@H](CC(C)C)C(=O)N[C@@H](CO)C(=O)N[C@H](C(=O)N[C@@H](Cc1ccc(O)cc1)C(=O)N1CCC[C@H]1C(=O)N[C@@H](CCCNC(=N)N)C(=O)N[C@H](C(=O)N[C@@H](CCC(=O)O)C(=O)N[C@H](C(=O)NCC(=O)N[C@@H](CO)C(=O)NCC(=O)N[C@@H](CO)C(=O)N[C@@H](Cc1ccc(O)cc1)C(N)=O)[C@@H](C)O)[C@@H](C)O)[C@@H](C)O) [[N-terminal(C20 diacid-gGlu), des1, 9S, 21S, 23Y, 30S, 31G, 33Y]mimylin]"
–,0.01,0.046,"Ac-ASK([γGlu-C20 diacid])LSTAALGRLSAELHELATLPRTETGSGSP-NH2 [[N-terminal(acetyl), des1, 4K(C20 diacid-gGlu), 30S, 31G]mimylin]"
–,0.023,0.029,"{C20 diacid-γGlu}-ASELSTAALGRLSAELHELATLPRTETGSGSY-NH2 (SMILES CC(C)C[C@H](NC(=O)[C@H](C)NC(=O)[C@H](C)NC(=O)[C@@H](NC(=O)[C@H](CO)NC(=O)[C@H](CC(C)C)NC(=O)[C@H](CCC(=O)O)NC(=O)[C@H](CO)NC(=O)[C@H](C)NC(=O)CC[C@H](NC(=O)CCCCCCCCCCCCCCCCCCC(=O)O)C(=O)O)[C@@H](C)O)C(=O)NCC(=O)N[C@@H](CCCNC(=N)N)C(=O)N[C@@H](CC(C)C)C(=O)N[C@@H](CO)C(=O)N[C@@H](C)C(=O)N[C@@H](CCC(=O)O)C(=O)N[C@@H](CC(C)C)C(=O)N[C@@H](Cc1c[nH]cn1)C(=O)N[C@@H](CCC(=O)O)C(=O)N[C@@H](CC(C)C)C(=O)N[C@@H](C)C(=O)N[C@H](C(=O)N[C@@H](CC(C)C)C(=O)N1CCC[C@H]1C(=O)N[C@@H](CCCNC(=N)N)C(=O)N[C@H](C(=O)N[C@@H](CCC(=O)O)C(=O)N[C@H](C(=O)NCC(=O)N[C@@H](CO)C(=O)NCC(=O)N[C@@H](CO)C(=O)N[C@@H](Cc1ccc(O)cc1)C(N)=O)[C@@H](C)O)[C@@H](C)O)[C@@H](C)O) [[N-terminal(C20 diacid-gGlu), des1, 30S, 31G, 33Y]mimylin]"
0.278,0.021,0.146,"{C20 diacid-γGlu}-ASELSTAVLGRLSQELHELQTYPRTETGSGTY-NH2 (SMILES CC(C)C[C@H](NC(=O)[C@H](CCCNC(=N)N)NC(=O)CNC(=O)[C@H](CC(C)C)NC(=O)[C@@H](NC(=O)[C@H](C)NC(=O)[C@@H](NC(=O)[C@H](CO)NC(=O)[C@H](CC(C)C)NC(=O)[C@H](CCC(=O)O)NC(=O)[C@H](CO)NC(=O)[C@H](C)NC(=O)CC[C@H](NC(=O)CCCCCCCCCCCCCCCCCCC(=O)O)C(=O)O)[C@@H](C)O)C(C)C)C(=O)N[C@@H](CO)C(=O)N[C@@H](CCC(N)=O)C(=O)N[C@@H](CCC(=O)O)C(=O)N[C@@H](CC(C)C)C(=O)N[C@@H](Cc1c[nH]cn1)C(=O)N[C@@H](CCC(=O)O)C(=O)N[C@@H](CC(C)C)C(=O)N[C@@H](CCC(N)=O)C(=O)N[C@H](C(=O)N[C@@H](Cc1ccc(O)cc1)C(=O)N1CCC[C@H]1C(=O)N[C@@H](CCCNC(=N)N)C(=O)N[C@H](C(=O)N[C@@H](CCC(=O)O)C(=O)N[C@H](C(=O)NCC(=O)N[C@@H](CO)C(=O)NCC(=O)N[C@H](C(=O)N[C@@H](Cc1ccc(O)cc1)C(N)=O)[C@@H](C)O)[C@@H](C)O)[C@@H](C)O)[C@@H](C)O) [[N-terminal(C20 diacid-gGlu), des1, 9V, 15Q, 21Q, 23Y, 30S, 31G, 32T, 33Y]mimylin]"
–,0.017,0.017,"{C20 diacid-γGlu}-ASELSTAALGRLS[dE]ELHELATLPRTETGSGSP-NH2 (SMILES CC(C)C[C@H](NC(=O)[C@H](C)NC(=O)[C@H](C)NC(=O)[C@@H](NC(=O)[C@H](CO)NC(=O)[C@H](CC(C)C)NC(=O)[C@H](CCC(=O)O)NC(=O)[C@H](CO)NC(=O)[C@H](C)NC(=O)CC[C@H](NC(=O)CCCCCCCCCCCCCCCCCCC(=O)O)C(=O)O)[C@@H](C)O)C(=O)NCC(=O)N[C@@H](CCCNC(=N)N)C(=O)N[C@@H](CC(C)C)C(=O)N[C@@H](CO)C(=O)N[C@H](CCC(=O)O)C(=O)N[C@@H](CCC(=O)O)C(=O)N[C@@H](CC(C)C)C(=O)N[C@@H](Cc1c[nH]cn1)C(=O)N[C@@H](CCC(=O)O)C(=O)N[C@@H](CC(C)C)C(=O)N[C@@H](C)C(=O)N[C@H](C(=O)N[C@@H](CC(C)C)C(=O)N1CCC[C@H]1C(=O)N[C@@H](CCCNC(=N)N)C(=O)N[C@H](C(=O)N[C@@H](CCC(=O)O)C(=O)N[C@H](C(=O)NCC(=O)N[C@@H](CO)C(=O)NCC(=O)N[C@@H](CO)C(=O)N1CCC[C@H]1C(N)=O)[C@@H](C)O)[C@@H](C)O)[C@@H](C)O) [[N-terminal(C20 diacid-gGlu), des1, 15e, 30S, 31G]mimylin]"
–,0.071,0.684,"Ac-ASELSTAALGRLSAELHK([γGlu-C20 diacid])LATLPRTETGSGSP-NH2 [[N-terminal(acetyl), des1, 19K(C20 diacid-gGlu), 30S, 31G]mimylin]"
22.9,0.072,0.162,"{C18 diacid-γGlu}-ASELTTAVLGRLTAELHELETLPRTETGTGTP-NH2 (SMILES CC(C)C[C@H](NC(=O)[C@H](CCC(=O)O)NC(=O)[C@H](C)NC(=O)[C@@H](NC(=O)[C@H](CC(C)C)NC(=O)[C@H](CCCNC(=N)N)NC(=O)CNC(=O)[C@H](CC(C)C)NC(=O)[C@@H](NC(=O)[C@H](C)NC(=O)[C@@H](NC(=O)[C@@H](NC(=O)[C@H](CC(C)C)NC(=O)[C@H](CCC(=O)O)NC(=O)[C@H](CO)NC(=O)[C@H](C)NC(=O)CC[C@H](NC(=O)CCCCCCCCCCCCCCCCC(=O)O)C(=O)O)[C@@H](C)O)[C@@H](C)O)C(C)C)[C@@H](C)O)C(=O)N[C@@H](Cc1c[nH]cn1)C(=O)N[C@@H](CCC(=O)O)C(=O)N[C@@H](CC(C)C)C(=O)N[C@@H](CCC(=O)O)C(=O)N[C@H](C(=O)N[C@@H](CC(C)C)C(=O)N1CCC[C@H]1C(=O)N[C@@H](CCCNC(=N)N)C(=O)N[C@H](C(=O)N[C@@H](CCC(=O)O)C(=O)N[C@H](C(=O)NCC(=O)N[C@H](C(=O)NCC(=O)N[C@H](C(=O)N1CCC[C@H]1C(N)=O)[C@@H](C)O)[C@@H](C)O)[C@@H](C)O)[C@@H](C)O)[C@@H](C)O) [[N-terminal(C18 diacid-gGlu), des1, 6T, 9V, 14T, 21E, 30T, 31G, 32T]mimylin]"
2.02,0.039,0.026,"{C20 diacid-γGlu}-ASELSTAALGRLSAELHELATYPRTETGSGAP-NH2 (SMILES CC(C)C[C@H](NC(=O)[C@H](C)NC(=O)[C@H](C)NC(=O)[C@@H](NC(=O)[C@H](CO)NC(=O)[C@H](CC(C)C)NC(=O)[C@H](CCC(=O)O)NC(=O)[C@H](CO)NC(=O)[C@H](C)NC(=O)CC[C@H](NC(=O)CCCCCCCCCCCCCCCCCCC(=O)O)C(=O)O)[C@@H](C)O)C(=O)NCC(=O)N[C@@H](CCCNC(=N)N)C(=O)N[C@@H](CC(C)C)C(=O)N[C@@H](CO)C(=O)N[C@@H](C)C(=O)N[C@@H](CCC(=O)O)C(=O)N[C@@H](CC(C)C)C(=O)N[C@@H](Cc1c[nH]cn1)C(=O)N[C@@H](CCC(=O)O)C(=O)N[C@@H](CC(C)C)C(=O)N[C@@H](C)C(=O)N[C@H](C(=O)N[C@@H](Cc1ccc(O)cc1)C(=O)N1CCC[C@H]1C(=O)N[C@@H](CCCNC(=N)N)C(=O)N[C@H](C(=O)N[C@@H](CCC(=O)O)C(=O)N[C@H](C(=O)NCC(=O)N[C@@H](CO)C(=O)NCC(=O)N[C@@H](C)C(=O)N1CCC[C@H]1C(N)=O)[C@@H](C)O)[C@@H](C)O)[C@@H](C)O) [[N-terminal(C20 diacid-gGlu), des1, 23Y, 30S, 31G, 32A]mimylin]"
